The target of test [1] is T1, human IL-17A (human, UniProt Q16552 24-155, biotinylated with Sulfo-NHS-LC-Biotin in the AlphaScreen assays only). Briefly: cell-based or functional assay.
In test [2] the target is T1, human IL-17A. In words: AlphaScreen competition, hIL-17A - IL-17RA-Fc.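 Further: receptor Fc-fusion plus Acceptor and streptavidin Donor beads incubated with the mixture for 1 h at room temperature before reading.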
Protocol: (§1) To this mixture, the IL-17RA or IL-17RC Fc-fusions, Acceptor beads and the streptavidin Donor beads were added and further incubated for 1 hour at RT.
Test [3] has as its target T1, human IL-17A. In words: AlphaScreen competition, hIL-17A - IL-17RC-Fc.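 Further: Read-out after 1 h at room temperature with the receptor Fc-fusion, Acceptor beads and streptavidin-coated Donor beads present.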
Protocol: as §1
For test [4], the target named is T1, human IL-17A. Briefly: SPR Biacore, hIL-17A on chip; periplasmic extract (*).
Protocol: (§2) Off-rates of the periplasmic extracts containing anti-IL-17 Nanobodies were measured by Surface Plasmon Resonance (SPR) using a Biacore T100 instrument. […] Periplasmic extracts containing IL-17 neutralizing Nanobodies were injected for 2 minutes at a flow rate of 45 μl/min to allow binding to chip-bound antigen. Next, binding buffer without periplasmic extracts was sent over the chip at the same flow rate to allow spontaneous dissociation of bound Nanobody. From the sensorgrams obtained for the different periplasmic extracts koff-values (k₄) were calculated.
Test [5] concerns the target T2, human IL-17F (human, UniProt Q96PD4 31-163, biotinylated with Sulfo-NHS-LC-Biotin in the AlphaScreen assays only).
T2 construct: also called hIL-17F; recombinant human IL-17F
T2 sequence: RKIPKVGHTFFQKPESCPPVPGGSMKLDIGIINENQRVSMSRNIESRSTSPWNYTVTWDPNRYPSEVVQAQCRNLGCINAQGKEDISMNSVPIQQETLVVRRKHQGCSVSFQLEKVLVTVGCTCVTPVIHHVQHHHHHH
In words: SPR Biacore, hIL-17F on chip; periplasmic extract (*); NB = no binding.
Protocol: as §2

Test [6] concerns the target T3, human IL-17A/F heterodimer (human, UniProt Q16552 24-155; Q96PD4 31-163, limits assumed, biotinylated with Sulfo-NHS-LC-Biotin in the AlphaScreen assays only).
T3 construct: also called hIL-17A/F
In words: SPR Biacore, hIL-17A/F on chip; periplasmic extract (*); NB = no binding.
Protocol: as §2

The target of test [7] is T4, human IL-17A (human, UniProt Q16552 24-155).
T4 construct: secreted form (GenBank U32659) expressed in Hek293 with C-terminal 6-His; also called hIL-17A; IL-17A-6HIS
T4 sequence (Q16552 other isoform, or with tags, fused parts or gaps): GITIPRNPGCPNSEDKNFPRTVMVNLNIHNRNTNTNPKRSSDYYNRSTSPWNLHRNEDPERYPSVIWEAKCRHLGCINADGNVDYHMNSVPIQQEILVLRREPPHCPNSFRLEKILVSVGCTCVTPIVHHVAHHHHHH
In words: ELISA, coated IL-17A.
Protocol: (§3) Binding of a selected panel of anti-IL-17 Nanobodies to IL-17 of other species was assessed using a binding ELISA. […] HRP (horseradish peroxidase) conjugated anti-myc (Serotec, MCA 2200P) was used for detection using esTMB as substrate.

Another test concerns the target T5, marmoset IL-17A (marmoset, IL-17A is a disulfide-linked homodimer. One chain is given.).
T5 chain: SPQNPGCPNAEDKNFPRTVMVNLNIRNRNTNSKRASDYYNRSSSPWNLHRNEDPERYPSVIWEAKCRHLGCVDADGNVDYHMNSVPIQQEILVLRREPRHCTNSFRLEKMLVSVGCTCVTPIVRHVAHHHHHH
Briefly: ELISA, coated IL-17A.

The next test deals with T6, mouse IL-17A (mouse, UniProt Q62386 26-158).
T6 sequence (looked up): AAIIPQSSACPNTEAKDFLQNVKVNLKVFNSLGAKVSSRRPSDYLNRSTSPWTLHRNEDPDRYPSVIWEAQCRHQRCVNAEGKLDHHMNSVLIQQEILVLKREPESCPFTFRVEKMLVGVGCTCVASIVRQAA
In words: ELISA, coated IL-17A.

The target of a further test is T7, rat IL-17A (rat, UniProt Q61453 18-150, limits assumed).
T7 sequence (looked up): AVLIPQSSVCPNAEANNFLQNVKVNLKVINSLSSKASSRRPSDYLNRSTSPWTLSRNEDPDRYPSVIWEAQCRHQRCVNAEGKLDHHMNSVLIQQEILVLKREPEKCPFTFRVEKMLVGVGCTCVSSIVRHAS
Briefly: ELISA, coated IL-17A.

The next test has as its target guinea pig IL-17A (guinea pig). In words: ELISA, coated IL-17A.
The target of a further test is T8, mouse IL-17F (mouse, UniProt Q7TNI7 29-161).
T8 sequence (looked up): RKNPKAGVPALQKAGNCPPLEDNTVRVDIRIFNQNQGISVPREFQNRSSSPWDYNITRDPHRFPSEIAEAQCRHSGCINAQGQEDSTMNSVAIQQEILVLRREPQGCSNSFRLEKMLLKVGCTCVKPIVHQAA
Briefly: ELISA, coated IL-17F.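 Further: binding ELISA on coated antigen from various species, with bound Nanobodies revealed by an HRP-linked anti-myc antibody and esTMB substrate.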

Another test deals with T9, rat IL-17F (rat, UniProt Q5BJ95 29-161).
T9 sequence (looked up): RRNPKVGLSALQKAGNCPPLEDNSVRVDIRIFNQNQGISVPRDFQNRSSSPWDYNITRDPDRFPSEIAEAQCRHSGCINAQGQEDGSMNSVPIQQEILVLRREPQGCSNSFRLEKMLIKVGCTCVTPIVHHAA
In words: ELISA, coated IL-17F.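 Further: binding ELISA on coated antigen from various species, with bound Nanobodies revealed by an HRP-linked anti-myc antibody and esTMB substrate.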

Test [8] deals with T4, human IL-17A. In words: KinExA, 200 pM Nanobody.
The target of test [9] is T4, human IL-17A. Briefly: SPR, IL-17A-Nanobody complex over captured IL-17RA.
Description: The receptor (IL-17RA or IL-17RC) was captured via its human Fc-tail by an anti-human IgG-Fc antibody coated on the chip.
Test [10] concerns the target T4, human IL-17A. Briefly: SPR.
Test [11] addresses T10, human IL-17A/F heterodimer (human, UniProt Q16552 24-155; Q96PD4 31-163, limits assumed).
T10 construct: produced in E. coli, bought from R&D Systems (Cat 5194-IL/CF); also called hIL-17A/F
Briefly: SPR.

Test [12] concerns the target T11, human IL-17F (human, UniProt Q96PD4 31-163).
T11 construct: GenBank AF384857, expressed in Hek293 as 6-His C-terminal tagged protein; also called hIL-17F; IL-17F-6HIS
T11 sequence: T2 sequence
Briefly: ELISA, coated IL-17F.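 Further: binding ELISA on coated antigen from various species, with bound Nanobodies revealed by an HRP-linked anti-myc antibody and esTMB substrate.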
Protocol: as §3

The target in another test is T12, marmoset IL-17F (marmoset, UniProt A6N6I9 31-163).
T12 sequence (looked up): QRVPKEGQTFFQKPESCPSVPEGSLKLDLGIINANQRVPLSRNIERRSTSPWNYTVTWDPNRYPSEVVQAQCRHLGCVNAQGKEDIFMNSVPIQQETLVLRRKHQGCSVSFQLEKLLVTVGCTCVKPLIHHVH
In words: ELISA, coated IL-17F.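 Further: binding ELISA on coated antigen from various species, with bound Nanobodies revealed by an HRP-linked anti-myc antibody and esTMB substrate.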

Test [13] concerns the target T4, human IL-17A. Briefly: KinExA, 600 pM Nanobody.
The target in test [14] is T4, human IL-17A. In words: AlphaScreen IL-17A-IL-17RA, average.
In test [15] the target is T4, human IL-17A. In words: cell-based or functional assay.
Test [16] concerns the target T11, human IL-17F. Briefly: cell-based or functional assay.
The target of a further test is Cynomolgus monkey IL-17A (Cynomolgus monkey, UniProt A0A2K5TTB0 24-155). In words: cell-based or functional assay.
Sequence of Cynomolgus monkey IL-17A (A0A2K5TTB0 entry or part of it): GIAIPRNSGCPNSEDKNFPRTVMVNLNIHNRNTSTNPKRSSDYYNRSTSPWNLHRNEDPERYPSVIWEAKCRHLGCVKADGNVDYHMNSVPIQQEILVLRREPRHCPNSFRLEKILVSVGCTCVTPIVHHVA
Another test addresses T13, Cynomolgus monkey IL-17F (Cynomolgus monkey, UniProt G7P4V0 31-163).
T13 sequence: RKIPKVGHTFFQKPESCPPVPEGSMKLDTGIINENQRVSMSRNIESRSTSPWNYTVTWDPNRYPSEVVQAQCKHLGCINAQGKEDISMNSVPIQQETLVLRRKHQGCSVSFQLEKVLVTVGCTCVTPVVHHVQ
Briefly: cell-based or functional assay.

The target of test [17] is T4, human IL-17A. Briefly: KinExA, 300 pM Nanobody.
Protocol: (§4) The affinity of a limited set of formatted Nanobodies was determined using the KinExA.
Test [18] has as its target T11, human IL-17F. Briefly: KinExA, 300 pM Nanobody.
Protocol: as §4
Test [19] concerns the target T4, human IL-17A. In words: competition ELISA IL17A-RA.
Protocol: To this end, IL-17RA, respectively IL-17RC was coated at a concentration of 1 μg/ml in PBS.
Test [20] deals with T4, human IL-17A. Briefly: KinExA, 30 pM Nanobody.
In test [21] the target is T4, human IL-17A. In words: KinExA, 100 pM Nanobody.
Protocol: as §4
The target of test [22] is T4, human IL-17A. In words: cell-based or functional assay. The source holds these as a separate data set.
Test [23] has as its target T11, human IL-17F. Briefly: cell-based or functional assay. The source holds these as a separate data set.
Test [24] deals with T11, human IL-17F. In words: KinExA, 10 pM Nanobody.
Test [25] deals with T4, human IL-17A. In words: KinExA, 50 pM Nanobody.
Protocol: as §4
Test [26] addresses T11, human IL-17F. In words: KinExA, 50 pM Nanobody.
Protocol: as §4

Several values for one entry are separate records, joined by “and”; a condition that tells them apart may be missing. Equal entries are not always repeated.

T1 sequence (Q16552 other isoform, or with tags, fused parts or gaps): as the sequence (Q16552 other isoform, or with tags, fused parts or gaps) above
T3 sequence (Q16552 24-155 limits assumed, one chain of several): as the sequence (A0A2K5TTB0 entry or part of it) above, with A3T, S8P, S34N, V77I, K78N, R104P counted along it
T10 sequence (Q16552 24-155 limits assumed, one chain of several): as the sequence (A0A2K5TTB0 entry or part of it) above, with A3T, S8P, S34N, V77I, K78N, R104P counted along it
Protocol for guinea pig IL-17A: as §3
Protocol for marmoset IL-17A: as §3
Protocol for marmoset IL-17F: as §3
Protocol for mouse IL-17A: as §3
Protocol for mouse IL-17F: as §3
Protocol for rat IL-17A: as §3
Protocol for rat IL-17F: as §3

B1: 01G03 (VHH)
VHH: EVQLVESGGGLVQAGGSLRLSCAASERTISNYDMGWFRQAPGKERELIAADISWSALNTNYADSVKGRFTISRDNAKNMVYLQMNNLKPEDTAVYYCAARRSGYASFDNWGQGTQVTVSS
notes: Class 1 Nanobody (anti-IL-17A); not shown: c-myc, His6 tag
In the case of B1, the “IL-17A-induced IL-6 production in HT-1080 cells, Emax” value with human IL-17A [1] worked out at 85.7%. Also, in the test with human IL-17A [1], the “IL-17A-induced IL-6 production in HT-1080 cells, IC50” value was 68.3 nM. In addition, the IC50 was 0.325 nM in the test with human IL-17A [2] and 1.15 nM in the test with human IL-17A [3]. In the test with human IL-17A [4], this molecule showed a koff of 0.00045 s⁻¹. Besides, the binding result (in the test with human IL-17F [5]; in [6]) was “no binding” throughout.

B2: 01A01 (VHH)
VHH: EVQLVESGGGLVQAGGSLRLSCAASGFTFDDYDIGWFRQAPGKEREGVSCFTSSDGRTFYADSVKGRFTVSADNAKNTVYLQMNSLEPEDTAVYFCAAVNTFDESAYAAFACYDVVRWGQGTQVTVSS
notes: Class 4
Consider B2, for which the OD in the test with human IL-17A [7] is 1.83 OD; with marmoset IL-17A it was 1.84 OD; with mouse IL-17A it was -0.003 OD; with rat IL-17A, 0.004 OD; with guinea pig IL-17A it was 0.008 OD; with mouse IL-17F, -0.0005 OD. In the test with rat IL-17F, this molecule displayed an OD of 0.0005 OD. For the same molecule, binding with human IL-17A [8] was characterised by a dissociation constant (Kd) of 0.0013 nM. Further, the “% Biacore binding (IL-17A-NB)-IL-17RA” value with human IL-17A [9] is -1.04%.

B3: 03B08 (VHH)
VHH: EVQLVESGGGLVQAGGSLRLSCAASGFTFDDYAIGWFRQAPGKEREGVSCISSSDGSIYYADSVKGRFTISSDNAKNTVYLQMNSLKPEDTAVYHCARFGRTGWAEECVDYDYWGQGTQVTVSS
notes: as for B1
Regarding B3, the “IL-17A-induced IL-6 production in HT-1080 cells, Emax” value with human IL-17A [1] was found to be 98.5%. In addition, in the test with human IL-17A [1], the “IL-17A-induced IL-6 production in HT-1080 cells, IC50” value was determined as 3.6 nM. The IC50 in the test with human IL-17A [2] worked out at 0.08 nM; with human IL-17A [3], 0.384 nM. The koff in the test with human IL-17A [4] was 0.0001 s⁻¹. In addition, the binding result (with human IL-17F [5]; in test [6]) was “no binding” throughout.

B4: 04G01 (VHH)
VHH: EVQLVESGGGLVQAGGSQRLSCTASGTIVNIHVMGWYRQAPGKQRELVALIFSGGSADYADSVKGRFTISRDNAKNTVYLEMNSLKAEDTAVYYCAAEIGYYSGGTYYSSEAHWGQGTQVTVSS
notes: Class 2; also called IL17MS04G01
On to B4, for which the koff with human IL-17A [10] is 0.00018 s⁻¹ and 0.000116 s⁻¹; in test [11] it was 0.00023 s⁻¹ and 0.00017 s⁻¹. Further, the OD in the test with human IL-17A [7] is 1.9 OD; with marmoset IL-17A it was 1.93 OD; with mouse IL-17A, -0.001 OD; with rat IL-17A, 0.004 OD; with guinea pig IL-17A it was 0.008 OD; in the test with human IL-17F [12], -0.016 OD. This molecule yielded an OD with marmoset IL-17F of 0.0005 OD. In the test with human IL-17A [13], this molecule came in with an equilibrium dissociation constant (Kd) of 0.0134 nM. For the same molecule, the IC50 in the test with human IL-17A [14] stood at 0.093 nM. In addition, in the test with human IL-17A [9], the “% Biacore binding (IL-17A-NB)-IL-17RA” value was -0.43%.

B5: 13B03-SH-Fc (Fc fusion, not shown: a dimerising Fc or GST)
chain: EVQLVESGGGSVQAGDSLRLSCAASGRANSINWFGWFRQTPGKEREFVAGIRWSDAYTEYANSVKGRFTISRDNAKNTVDLQMDSLKPEDTAVYYCVLDLSTVRYWGQGTQVTVSSEPKSSDKTHTCPPCP
notes: bivalent Fc fusion from Hek-293-6E cells; signal peptide left out; also called MSB0010493; 13B03VHH-SH-Fc
With B5, in the test with human IL-17A [15], the “Emax, hIL-17A induced IL-6, HT-1080, without HSA” value came to 100% and the “IC50, hIL-17A induced IL-6, HT-1080, without HSA” value was 0.19 nM. Besides, the “IC50, hIL-17F induced IL-6, HT-1080, without HSA” value with human IL-17F [16] turned out to be 5.8 nM. Further, in the test with Cynomolgus monkey IL-17A, the “IC50, Cyno IL17A, HT-1080 bioassay” value was found to be 0.21 nM. Further, the “IC50, Cyno IL17F, HT-1080 bioassay” value with Cynomolgus monkey IL-17F worked out at 3.8 nM. The Kd with human IL-17A [17] is 0.0002 nM. In addition, in the test with human IL-17F [18], the affinity, expressed as Kd, was 0.132 nM. For the same molecule, in the test with human IL-17A [19], the IC50 worked out at 0.02 nM.

B6: 13E02-SH-Fc (Fc fusion, not shown: a dimerising Fc or GST)
chain: EVQLVESGGGLVQAGGSLRLSCAASGRTYDAMGWLRQAPGKEREFVAAISGSGDDTYYADSVKGRFTISKDNAGITMYLQMNSLKPEDTAVYYCATRRGLYYVWDSNDYENWGQGTQVTVSSEPKSSDKTHTCPPCP
notes: bivalent Fc fusion from Hek-293-6E cells
On to B6, for which the Kd in the test with human IL-17A [20] was determined as 0.0036 nM; in the test with human IL-17A [21] it was 0.009 nM.

B7: 13B03-LH-Fc (Fc fusion, not shown: a dimerising Fc or GST)
chain: EVQLVESGGGSVQAGDSLRLSCAASGRANSINWFGWFRQTPGKEREFVAGIRWSDAYTEYANSVKGRFTISRDNAKNTVDLQMDSLKPEDTAVYYCVLDLSTVRYWGQGTQVTVSSEPKTPKPQPQPQPQPNPTTESKCPKCP
notes: bivalent Fc fusion from Hek-293-6E cells; also called MSB0010530
Regarding B7, in the test with human IL-17A [22], the “Emax, hIL-17A induced IL-6, HT-1080, 100 µM HSA” value came out at 97.5%. Besides, in the test with human IL-17A [22], the “IC50, hIL-17A induced IL-6, HT-1080, 100 µM HSA” value was determined as 0.95 nM. Also, the “IC50, hIL-17F induced IL-6, HT-1080, 100 µM HSA” value in the test with human IL-17F [23] came to 15.6 nM. The Kd in the test with human IL-17F [24] amounted to 0.0223 nM; in the test with human IL-17A [25], 0.002 nM; with human IL-17F [26], 0.02 nM. In the test with human IL-17A [19], this molecule displayed an IC50 of 0.031 nM.
